Common to all, as to experiment: SPR (BIACORE), 25 C, antibody captured, FcgR as analyte; KD of SG1 divided by KD of variant;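 also: relative to parent M103205H795-SG1 carrying the SG1 human heavy chain constant region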
In assay [1] the target is T1, cynomolgus monkey FcγRIIa2 extracellular domain, His-tagged (cynomolgus monkey).
T1 construct: also called cyno FcγRIIa2; FcgRIIa2; not shown: C-terminal His-tag
T1 chain: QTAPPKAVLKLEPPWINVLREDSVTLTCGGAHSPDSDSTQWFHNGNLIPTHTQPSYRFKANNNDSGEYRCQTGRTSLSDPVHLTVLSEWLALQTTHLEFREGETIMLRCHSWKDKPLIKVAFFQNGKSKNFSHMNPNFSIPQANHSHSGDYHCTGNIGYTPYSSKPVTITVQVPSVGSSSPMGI

In assay [2] the target is T2, cynomolgus monkey FcγRIIIaS extracellular domain, His-tagged (cynomolgus monkey, UniProt Q8SPW2 21-206 at identity 1.00)).
T2 construct: also called cyno FcγRIIIaS; FcgRIIIaS; not shown: C-terminal His-tag
T2 chain: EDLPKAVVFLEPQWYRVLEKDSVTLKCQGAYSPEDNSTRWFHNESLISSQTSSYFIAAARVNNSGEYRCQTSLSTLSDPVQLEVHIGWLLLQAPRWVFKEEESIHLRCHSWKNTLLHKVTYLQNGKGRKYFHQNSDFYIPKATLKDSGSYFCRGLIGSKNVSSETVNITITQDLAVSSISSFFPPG

The target in assay [3] is T3, cynomolgus monkey FcγRIIa3 extracellular domain, His-tagged (cynomolgus monkey).
T3 construct: also called cyno FcγRIIa3; FcgRIIa3; not shown: C-terminal His-tag
T3 chain: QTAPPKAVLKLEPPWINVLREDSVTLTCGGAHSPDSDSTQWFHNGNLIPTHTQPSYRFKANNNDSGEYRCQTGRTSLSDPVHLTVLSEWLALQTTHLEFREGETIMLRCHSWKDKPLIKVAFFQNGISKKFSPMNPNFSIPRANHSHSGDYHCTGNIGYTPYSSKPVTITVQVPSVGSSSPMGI

Assay [4] addresses T4, human FcγRIIaH extracellular domain, His-tagged (human, UniProt P12318 34-217).
T4 construct: also called human FcγRIIa (type H); FcgRIIaH; not shown: C-terminal His-tag
T4 sequence: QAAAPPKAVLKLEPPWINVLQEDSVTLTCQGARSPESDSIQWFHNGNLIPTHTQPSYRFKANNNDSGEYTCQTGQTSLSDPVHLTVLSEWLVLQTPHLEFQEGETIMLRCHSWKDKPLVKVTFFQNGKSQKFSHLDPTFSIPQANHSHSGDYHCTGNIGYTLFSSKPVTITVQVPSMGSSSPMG

The target in assay [5] is T5, human FcγRIIIaV extracellular domain, His-tagged (human, UniProt P08637 17-208).
T5 construct: also called human FcγRIIIa (V158); FcgRIIIaV; not shown: C-terminal His-tag
T5 sequence (P08637 17-208 F176V): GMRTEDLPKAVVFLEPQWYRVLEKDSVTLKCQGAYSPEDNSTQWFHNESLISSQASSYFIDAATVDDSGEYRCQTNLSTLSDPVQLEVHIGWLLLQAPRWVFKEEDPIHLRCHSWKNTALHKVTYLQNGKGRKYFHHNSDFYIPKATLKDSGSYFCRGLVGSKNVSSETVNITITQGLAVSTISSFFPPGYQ

In assay [6] the target is T6, human FcγRIIaR extracellular domain, His-tagged (human, UniProt P12318 34-217).
T6 construct: also called human FcγRIIa (type R); FcgRIIaR; not shown: C-terminal His-tag
T6 chain: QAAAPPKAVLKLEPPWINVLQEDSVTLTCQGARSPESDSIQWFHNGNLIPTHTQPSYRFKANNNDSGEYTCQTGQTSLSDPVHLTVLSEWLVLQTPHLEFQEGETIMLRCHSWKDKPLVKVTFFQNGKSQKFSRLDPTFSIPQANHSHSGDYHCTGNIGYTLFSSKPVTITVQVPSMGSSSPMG

Assay [7] concerns the target T7, human FcγRIIb extracellular domain, His-tagged (human, UniProt P31994 43-217).
T7 construct: also called FcgRIIb (human); not shown: C-terminal His-tag
T7 sequence: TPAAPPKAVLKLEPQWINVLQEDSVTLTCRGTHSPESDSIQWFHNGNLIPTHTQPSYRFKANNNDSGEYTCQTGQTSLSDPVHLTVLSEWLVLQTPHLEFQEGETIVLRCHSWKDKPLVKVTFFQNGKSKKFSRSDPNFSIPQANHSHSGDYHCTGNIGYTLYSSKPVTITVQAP

For assay [8], the target named is T8, cynomolgus monkey FcγRIIa1 extracellular domain, His-tagged (cynomolgus monkey).
T8 construct: also called cyno FcγRIIa1; FcgRIIa1; not shown: C-terminal His-tag
T8 chain: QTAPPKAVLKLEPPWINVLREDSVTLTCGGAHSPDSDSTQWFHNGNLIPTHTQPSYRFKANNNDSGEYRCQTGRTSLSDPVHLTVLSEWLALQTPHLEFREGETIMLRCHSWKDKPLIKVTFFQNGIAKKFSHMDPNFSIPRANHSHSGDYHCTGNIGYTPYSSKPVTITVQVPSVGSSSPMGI

In assay [9] the target is T9, cynomolgus monkey FcγRIIb extracellular domain, His-tagged (cynomolgus monkey).
T9 construct: also called cyno FcγRIIb; cynoFcγRIIb; not shown: C-terminal His-tag
T9 chain: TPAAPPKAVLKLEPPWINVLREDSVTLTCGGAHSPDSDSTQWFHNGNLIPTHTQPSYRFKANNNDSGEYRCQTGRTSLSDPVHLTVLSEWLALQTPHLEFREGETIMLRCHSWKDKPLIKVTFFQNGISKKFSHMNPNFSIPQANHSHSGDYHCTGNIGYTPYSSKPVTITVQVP

B1: M103205H795-MY455 / M103202L889-SK1 (antibody, human IgG1, kappa)
heavy: QVTLKESGPVLVKPTETLTLTCTVSGIDLSHDDISWVRQAPGKGLEWVGIISYAGSTYYASWAKGRLTISKDTSKNQVVLTMTNMDPVDTATYYCARGVPAYSHGGDLWGQGTLVTVSSASTKGPSVFPLAPSSKSTSGGTAALGCLVKDYFPEPVTVSWNSGALTSGVHTFPAVLQSSGLYSLSSVVTVPSSSLGTQTYICNVNHKPSNTKVDKKVEPKSCDKTHTCPPCPATELLTGPSVFLFPPKPKDTLMISRTPEVTCVVVDVSDEDPEVKFNWYVDGVEVHNAKTKPREEQYNSTYRVVSVLTVLHQDWLNGKEYKCKVSNKALPKPIEKTISKAKGQPREPQVYTLPPSREEMTKNQVSLTCLVKGFYPSDIAVEWESNGQPENNYKTTPPVLDSDGSFFLYSKLTVDKSRWQQGNVFSCSVMHEALHNHYTQKSLSLSP
light: DIVMTQSPATLSLSPGERATLSCTSSQSVYHANWLSWFQQKPGQPPKLLIYWASTLAYGVPSRFSGSGSGTDFTLTISSLQPEDAATYYCAGGYGGGRYAFGQGTKVEIKRTVAAPSVFIFPPSDEQLKSGTASVVCLLNNFYPREAKVQWKVDNALQSGNSQESVTEQDSKDSTYSLSSTLTLSKADYEKHKVYACEVTHQGLSSPVTKSFNRGEC
notes: substitution positions are EU numbers
Consider B1, for which the “KD fold (SG1 = 1)” value in assay [1] was determined as 1.8 fold; in assay [2] it was 0.1 fold; in assay [3], 3.1 fold; in assay [4], 2.2 fold; in assay [5] it was 0.1 fold; in [6] it was 2.4 fold. Besides, the “KD fold (SG1 = 1)” value stood at 2.1 fold in assay [7], 1 fold in [8] and 2 fold in assay [9].

B2: M103205H795-MY456 / M103202L889-SK1 (antibody, human IgG1, kappa)
heavy: QVTLKESGPVLVKPTETLTLTCTVSGIDLSHDDISWVRQAPGKGLEWVGIISYAGSTYYASWAKGRLTISKDTSKNQVVLTMTNMDPVDTATYYCARGVPAYSHGGDLWGQGTLVTVSSASTKGPSVFPLAPSSKSTSGGTAALGCLVKDYFPEPVTVSWNSGALTSGVHTFPAVLQSSGLYSLSSVVTVPSSSLGTQTYICNVNHKPSNTKVDKKVEPKSCDKTHTCPPCPAVELLTGPSVFLFPPKPKDTLMISRTPEVTCVVVDVSDEDPEVKFNWYVDGVEVHNAKTKPREEQYNSTYRVVSVLTVLHQDWLNGKEYKCKVSNKALPKPIEKTISKAKGQPREPQVYTLPPSREEMTKNQVSLTCLVKGFYPSDIAVEWESNGQPENNYKTTPPVLDSDGSFFLYSKLTVDKSRWQQGNVFSCSVMHEALHNHYTQKSLSLSP
light: DIVMTQSPATLSLSPGERATLSCTSSQSVYHANWLSWFQQKPGQPPKLLIYWASTLAYGVPSRFSGSGSGTDFTLTISSLQPEDAATYYCAGGYGGGRYAFGQGTKVEIKRTVAAPSVFIFPPSDEQLKSGTASVVCLLNNFYPREAKVQWKVDNALQSGNSQESVTEQDSKDSTYSLSSTLTLSKADYEKHKVYACEVTHQGLSSPVTKSFNRGEC
notes: as for B1
For B2, the “KD fold (SG1 = 1)” value in assay [1] turned out to be 3 fold; in [2], 0.2 fold; in assay [3], 5 fold; in assay [4], 4.1 fold; in [5], 0.2 fold; in [6], 3.8 fold. For the same molecule, the “KD fold (SG1 = 1)” value in assay [7] was found to be 4.2 fold; in assay [8], 1.7 fold; in assay [9] it was 3.5 fold.

B3: M103205H795-MY458 / M103202L889-SK1 (antibody, human IgG1, kappa)
heavy: QVTLKESGPVLVKPTETLTLTCTVSGIDLSHDDISWVRQAPGKGLEWVGIISYAGSTYYASWAKGRLTISKDTSKNQVVLTMTNMDPVDTATYYCARGVPAYSHGGDLWGQGTLVTVSSASTKGPSVFPLAPSSKSTSGGTAALGCLVKDYFPEPVTVSWNSGALTSGVHTFPAVLQSSGLYSLSSVVTVPSSSLGTQTYICNVNHKPSNTKVDKKVEPKSCDKTHTCPPCPAYELLTGPSVFLFPPKPKDTLMISRTPEVTCVVVDVSDEDPEVKFNWYVDGVEVHNAKTKPREEQYNSTYRVVSVLTVLHQDWLNGKEYKCKVSNKALPKPIEKTISKAKGQPREPQVYTLPPSREEMTKNQVSLTCLVKGFYPSDIAVEWESNGQPENNYKTTPPVLDSDGSFFLYSKLTVDKSRWQQGNVFSCSVMHEALHNHYTQKSLSLSP
light: DIVMTQSPATLSLSPGERATLSCTSSQSVYHANWLSWFQQKPGQPPKLLIYWASTLAYGVPSRFSGSGSGTDFTLTISSLQPEDAATYYCAGGYGGGRYAFGQGTKVEIKRTVAAPSVFIFPPSDEQLKSGTASVVCLLNNFYPREAKVQWKVDNALQSGNSQESVTEQDSKDSTYSLSSTLTLSKADYEKHKVYACEVTHQGLSSPVTKSFNRGEC
notes: as for B1
Regarding B3, the “KD fold (SG1 = 1)” value in assay [1] worked out at 3.2 fold; in assay [2] it was 0.3 fold; in assay [3], 5.7 fold; in assay [4], 4.3 fold; in assay [5], 0.2 fold; in [6] it was 6.5 fold. The “KD fold (SG1 = 1)” value in [7] came out at 4.6 fold; in assay [8], 1.8 fold; in assay [9], 4.2 fold.

B4: M103205H795-MY457 / M103202L889-SK1 (antibody, human IgG1, kappa)
heavy: QVTLKESGPVLVKPTETLTLTCTVSGIDLSHDDISWVRQAPGKGLEWVGIISYAGSTYYASWAKGRLTISKDTSKNQVVLTMTNMDPVDTATYYCARGVPAYSHGGDLWGQGTLVTVSSASTKGPSVFPLAPSSKSTSGGTAALGCLVKDYFPEPVTVSWNSGALTSGVHTFPAVLQSSGLYSLSSVVTVPSSSLGTQTYICNVNHKPSNTKVDKKVEPKSCDKTHTCPPCPAWELLTGPSVFLFPPKPKDTLMISRTPEVTCVVVDVSDEDPEVKFNWYVDGVEVHNAKTKPREEQYNSTYRVVSVLTVLHQDWLNGKEYKCKVSNKALPKPIEKTISKAKGQPREPQVYTLPPSREEMTKNQVSLTCLVKGFYPSDIAVEWESNGQPENNYKTTPPVLDSDGSFFLYSKLTVDKSRWQQGNVFSCSVMHEALHNHYTQKSLSLSP
light: DIVMTQSPATLSLSPGERATLSCTSSQSVYHANWLSWFQQKPGQPPKLLIYWASTLAYGVPSRFSGSGSGTDFTLTISSLQPEDAATYYCAGGYGGGRYAFGQGTKVEIKRTVAAPSVFIFPPSDEQLKSGTASVVCLLNNFYPREAKVQWKVDNALQSGNSQESVTEQDSKDSTYSLSSTLTLSKADYEKHKVYACEVTHQGLSSPVTKSFNRGEC
notes: as for B1
Take B4: the “KD fold (SG1 = 1)” value in assay [1] was found to be 6.1 fold; in assay [2], 0.3 fold; in assay [3] it was 14.2 fold; in [4], 5.3 fold; in [5] it was 0.2 fold; in assay [6], 15.1 fold. The entries for the “KD fold (SG1 = 1)” value in assay [7], in assay [8] and in assay [9] were 13.9 fold, 4 fold and 9 fold, respectively.

For the origin of these results see patent US20200317768A1 (published 2020).
